# According to US20130177919:
# Where a chain is given by its changes, count along the chain named.
# T1: recombinant GST-Flag-CERT(1-138) wild type fusion protein from E. coli
# T1 chain: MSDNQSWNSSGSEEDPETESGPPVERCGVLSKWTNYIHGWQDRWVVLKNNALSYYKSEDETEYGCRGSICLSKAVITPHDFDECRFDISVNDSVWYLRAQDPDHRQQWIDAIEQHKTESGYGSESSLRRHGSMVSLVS
# T2: recombinant GST-Flag-CERT-S132A(1-138) fusion protein from E. coli
# T2 chain: T1 chain with S132A
# B1: purified PKD1 (protein)
# chain: MSAPPVLRPPSPLLPVAAAAAAAAAALVPGSGPGPAPFLAPVAAPVGGISFHLQIGLSREPVLLLQDSSGDYSLAHVREMACSIVDQKFPECGFYGMYDKILLFRHDPTSENILQLVKAASDIQEGDLIEVVLSASATFEDFQIRPHALFVHSYRAPAFCDHCGEMLWGLVRQGLKCEGCGLNYHKRCAFKIPNNCSGVRRRRLSNVSLTGVSTIRTSSAELSTSAPDEPLLQKSPSESFIGREKRSNSQSYIGRPIHLDKILMSKVKVPHTFVIHSYTRPTVCQYCKKLLKGLFRQGLQCKDCRFNCHKRCAPKVPNNCLGEVTINGDLLSPGAESDVVMEEGSDDNDSERNSGLMDDMEEAMVQDAEMAMAECQNDSGEMQDPDPDHEDANRTISPSTSNNIPLMRVVQSVKHTKRKSSTVMKEGWMVHYTSKDTLRKRHYWRLDSKCITLFQNDTGSRYYKEIPLSEILSLEPVKTSALIPNGANPHCFEITTANVVYYVGENVVNPSSPSPNNSVLTSGVGADVARMWEIAIQHALMPVIPKGSSVGTGTNLHRDISVSISVSNCQIQENVDISTVYQIFPDEVLGSGQFGIVYGGKHRKTGRDVAIKIIDKLRFPTKQESQLRNEVAILQNLHHPGVVNLECMFETPERVFVVMEKLHGDMLEMILSSEKGRLPEHITKFLITQILVALRHLHFKNIVHCDLKPENVLLASADPFPQVKLCDFGFARIIGEKSFRRSVVGTPAYLAPEVLRNKGYNRSLDMWSVGVIIYVSLSGTFPFNEDEDIHDQIQNAAFMYPPNPWKEISHEAIDLINNLLQVKMRKRYSVDKTLSHPWLQDYQTWLDLRELECKIGERYITHESDDLRWEKYAGEQGLQYPTHLINPSASHSDTPETEETEMKALGERVSIL
# How the values were obtained:
# [1] = molecular target: T1, recombinant GST-Flag-CERT(1-138) wild …
# [2] = molecular target: T2, recombinant GST-Flag-CERT-S132A(1-138) …
protein,measurement,setting,value
B1,"incorporation of radioactivity ([γ-32P]-ATP, in vitro kinase assay)",[1],incorporation of radioactivity is detected
same,"incorporation of radioactivity ([γ-32P]-ATP, in vitro kinase assay)",[2],This is significantly impaired in the case of the CERT-S132A fusion protein
